This is an account of results in article PMC7018707, “FUS Recognizes G Quadruplex Structures Within Neuronal mRNAs”.

The target in this series is full-length FUS wild type (UniProt P35637 1-526). The series can be described thus: steady-state fluorescence (2-AP); 150 mM KCl, 5-fold excess BSA; Fluorescence: 10 mM cacodylic acid pH 6.5, 150 mM KCl, 23 C, 150 or 200 nM RNA, 5-fold excess BSA or HCV peptide; pull-down: 5 uM probe annealed in the same buffer, room temperature, RIPA lysate and washes; native PAGE 20%, RNA:peptide 1:1 to 1:3. As to conditions: protein: recombinant, G quadruplex.
full-length FUS wild type, sequence (P35637 whole entry): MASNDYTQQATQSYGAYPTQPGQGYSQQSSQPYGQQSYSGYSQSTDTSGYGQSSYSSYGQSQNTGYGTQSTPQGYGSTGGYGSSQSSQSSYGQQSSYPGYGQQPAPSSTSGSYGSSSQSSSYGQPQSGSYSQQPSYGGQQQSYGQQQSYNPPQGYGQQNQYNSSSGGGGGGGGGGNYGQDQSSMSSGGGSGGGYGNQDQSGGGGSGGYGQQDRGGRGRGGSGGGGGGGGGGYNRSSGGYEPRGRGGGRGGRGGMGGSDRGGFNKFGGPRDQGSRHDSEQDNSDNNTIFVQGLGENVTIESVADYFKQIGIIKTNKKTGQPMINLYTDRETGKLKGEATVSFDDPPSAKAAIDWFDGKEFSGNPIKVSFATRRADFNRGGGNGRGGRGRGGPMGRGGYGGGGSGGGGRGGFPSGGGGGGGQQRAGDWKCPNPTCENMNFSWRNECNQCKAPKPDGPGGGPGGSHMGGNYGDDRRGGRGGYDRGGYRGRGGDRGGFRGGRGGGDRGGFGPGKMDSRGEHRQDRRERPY

Consider GGGAGGGAGGGUGGG (structured_RNA, A4 replaced by 2-aminopurine) [PSD-95 GQ2 2-AP], for which the Kd (label: 2-AP at position 4) is 28 ± 10 nM.

For the molecule GGGGUUGGGGAGGGUGUAGGGGGUGGGG (structured_RNA, A18 replaced by 2-aminopurine) [Shank1a GQ 2-AP], the dissociation constant (Kd) (label: 2-AP at position 18) is 88 ± 27 nM.
